Assay results as given in paper PMC4351158.
Where a chain is given by its changes, count along the chain named. Names may count otherwise.

B1: DegP S210A/T176V (enzyme)
chain: AETSSATTAQQMPSLAPMLEKVMPSVVSINVEGSTTVNTPRMPRNFQQFFGDDSPFCQEGSPFQSSPFCQGGQGGNGGGQQQKFMALGSGVIIDADKGYVVTNNHVVDNATVIKVQLSDGRKFDAKMVGKDPRSDIALIQIQNPKNLTAIKMADSDALRVGDYTVAIGNPFGLGEVVTSGIVSALGRSGLNAENYENFIQTDAAINRGNAGGALVNLNGELIGINTAILAPDGGNIGIGFAIPSNMVKNLTSQMVEYGQVKRGELGIMGTELNSELAKAMKVDAQRGAFVSQVLPNSSAAKAGIKAGDVITSLNGKPISSFAALRAQVGTMPVGSKLTLGLLRDGKQVNVNLELQQSSQNQVDSSSIFNGIEGAEMSNKGKDQGVVVNNVKTGTPAAQIGLKKGDVIIGANQQAVKNIAELRKVLDSKPSVLALNIQRGDSTIYLLMQ
modifications: donor or acceptor dye on the trimers in the FRET assay only (site not given)
B2: DegP S210A/Q200A (enzyme)
chain: B1 chain with V176T, Q200A
modifications: donor or acceptor dye on the trimers in the FRET assay only (site not given)
B3: DegP S210A/R187A (enzyme)
chain: B1 chain with V176T, R187A
modifications: donor or acceptor dye on the trimers in the FRET assay only (site not given)
B4: DegP S210A (proteolytically inactive variant missing the catalytic serine) (enzyme)
chain: B1 chain with V176T
modifications: donor or acceptor dye on the trimers in the FRET assay only (site not given)

molecular target: fluorescent peptide derived from residues 18-58 of lysozyme; experiment: fluorescence polarisation

Kd [µM]	Binder
30	B1
30	B2
30	B3

molecular target: fluorescent peptide derived from residues 18-58 of lysozyme; experiment: fluorescence polarisation; remark: another data set of the same source

Kd [µM]	Binder
1	B4
30	B1
30	B2
30	B3
